# Assay results reported in US11369662B2 (The Medical College of Wisconsin, Inc., priority 2014, dated 2022).
# Entries after “also recorded” stand apart in the source; their conditions may differ.
# How the values were obtained:
# CXCR4 [1] = biological target: T1, CXCR4 (Homo sapiens, UniProt P61073); experiment: β-arrestin-2 recruitment BRET assay in HEK293 cells; format: cell-based; conditions: concentrations increased to 10 and 100 μM
# T1 construct: purchased Millipore
# Protocol: β-arrestin-2 recruitment. β-arrestin-2 recruitment was measured using an intermolecular BRET assay performed as described previously. HEK293E cells were cotransfected with […] of CXCR4-eYFP construct with […] of β-arrestin-2-RLuc (a gift from Michel Bouvier, University of Montreal, Montreal, QC, Canada). For [acceptor]/[donor]titrations […] of β-arrestin-2-RLuc were cotransfected with increasing amounts of the CXCR4-eYFP construct. All transfections were completed to 2 mg/well with empty vector. […] Cells were washed once with PBS, and the RLuc substrate coelenterazine-II (NanoLight Technology) was added at a final concentration of […] to BRET buffer (PBS, 0.5 mM MgCl2, 0.1% w/v glucose). β-arrestin recruitment was measured 30 min after ligand addition. […]
# β-arrestin-2 recruitment. β-arrestin-2 recruitment was measured using an intermolecular BRET assay performed as described previously. […] The medium of the cells was then changed to BRET buffer (PBS, 0.5 mM MgC2, 0.1% (w/v) BSA). β-arrestin-2 recruitment was measured 15 min after ligand addition, and 10 min after the addition of the RLuc3 substrate coelenterazine400a (NanoLight Technology) at a final concentration of […]. […]
# CXCL12WT dimerization = biological target: T2, CXCL12WT dimerization (Homo sapiens, UniProt P48061); experiment: Intrinsic tryptophan fluorescence polarization assay of CXCL12WT dimerization; format: binding; conditions: for ΔGdimer: 298 K
# T2 construct: made in house
# T2 sequence (P48061 22-89): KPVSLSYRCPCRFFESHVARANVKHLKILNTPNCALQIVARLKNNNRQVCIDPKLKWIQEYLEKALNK
# Protocol: Fluorescence polarization assay. Fluorescence polarization (FP) assays were performed on a PTI spectrofluorometer equipped with automated polarizers, using a time base polarization method provided by the program Felix32. […] Experiments were performed in duplicate and the reported dimerization Kd values reflect the average of both experiments.
# CXCR4 (Y7A, Y12A, Y21A) = biological target: T3, CXCR4 (Y7A, Y12A, Y21A) (Homo sapiens, UniProt P61073, Y12A/Y21A/Y7A); experiment: Calcium flux in CHO-K1 cells, FLAG-tagged CXCR4 with Y7A, Y12A and Y21A; format: cell-based
# T3 construct: expressed in transfected cells; host or cells: CHO-K1 stably expressing Galpha15 (transient)
# T3 sequence (P61073 whole entry Y7A/Y12A/Y21A): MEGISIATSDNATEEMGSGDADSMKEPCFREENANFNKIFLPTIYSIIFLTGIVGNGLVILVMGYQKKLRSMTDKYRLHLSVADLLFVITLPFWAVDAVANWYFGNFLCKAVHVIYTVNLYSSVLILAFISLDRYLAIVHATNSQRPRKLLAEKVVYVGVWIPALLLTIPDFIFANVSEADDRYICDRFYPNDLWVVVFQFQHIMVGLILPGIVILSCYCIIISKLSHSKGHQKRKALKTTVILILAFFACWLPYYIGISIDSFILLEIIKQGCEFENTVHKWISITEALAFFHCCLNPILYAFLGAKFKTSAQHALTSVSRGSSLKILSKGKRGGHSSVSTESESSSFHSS
# Protocol: (§1) Cell culture. Chinese hamster ovary K1 (CHO-K1) cells, stably transfected with the Gα15 gene in pcDNA3.1+, were cultured in a 1:1 mixture of Dulbecco's modified Eagle medium (DMEM) with Glutamax (Gibco):F12 nutrient mixture (Gibco) supplemented with 10% (w/v) fetal bovine serum (FBS) (Gibco). Stable expression of the Gα15 transgene was maintained by further supplementing the growth medium with 700 μg ml^−1 geneticin (Gibco).
# (§2) Transfections. For transient transfections with the Flag-CXCR4 WT and N-terminally mutated constructs, the CHO-K1 Gα15 stable cells were lifted using 0.25% (v/v) trypsin-EDTA (Gibco), and 2×10^6 cells were re-plated onto 10 cm culture dishes. […] The cells were transfected 24 hours later using the Mirus TransIT-CHO Transfection Kit according to the manufacturers protocol, with the following exceptions: the amount of CHO transfection reagent was scaled up to 4 μl μg^−1 of DNA in the transfection mixtures, and the amount of CHO mojo reagent was scaled up to 1 μl μg^−1 of DNA in the mixtures. […]
# (§3) Calcium flux. […] Fluorescence was measured at 310 K using a FlexStation2 Microplate Reader with excitation and emission wavelengths at 485 nm and 515 nm, respectively. […] CXCR4 variants with EC50 or maximum calcium response values more than three standard deviations from the mean CXCR4WT quantities were deemed significant.
# CXCR4(Y12A) = biological target: T4, CXCR4(Y12A) (Homo sapiens, UniProt P61073, Y12A); experiment: Calcium flux in CHO-K1 cells, FLAG-tagged CXCR4(Y12A); format: cell-based; conditions: relative to wildtype CXCR4
# T4 construct: expressed in transfected cells; host or cells: CHO-K1 stably expressing Galpha15 (transient)
# T4 sequence (P61073 whole entry Y12A): as the sequence (P61073 whole entry Y7A/Y12A/Y21A) above, with A7Y, A21Y counted along it
# Protocol: as §1, §2, §3
# CXCR4 [2] = biological target: T1, CXCR4; experiment: Radioligand displacement of 125I-CXCL12 from CXCR4 membrane preparations; format: binding; conditions: relative to CXCL12WT
# Protocol: Radioligand displacement. Commercial membrane preparations of cells stably expressing CXCR4 or CXCR7 were purchased (Millipore). Five micrograms of protein per point was incubated for 90 min on ice in binding buffer with 0.03 nM of […] as a tracer and increasing concentrations of competitor in a final 40 μL volume. Bound radioactivity was separated from free ligand by filtration, and receptor-bound radioactivity was quantified by gamma-radiation counting (Perkin-ECXCL121er Life and Analytical Sciences). Isolated membrane binding experiments were carried out in duplicate.
# CXCR41-38 = biological target: T5, CXCR41-38 (Homo sapiens, UniProt P61073, C28A); experiment: Binding of CXCL12 variants to CXCR41-38 by 2D NMR chemical shift perturbation; conditions: nonlinear fitting of chemical shift perturbations, quadratic binding equation; read-out: Kd (affinity for CXCR41-38)
# T5 construct: comprising the first 38 amino acids of CXCR4 preceded by a residual GlyMet dipeptide tag; made in house
# T5 sequence (P61073 1-38 C28A): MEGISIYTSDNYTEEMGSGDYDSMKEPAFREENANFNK
# Protocol: Total peptide additions differed for individual peptide titrations but ranged from 0-160 equivalencies. Spectra were processed using in-house scripts and chemical shift tracking was performed using CARA software. […] For a given interaction, residues with the largest chemical shift perturbations were fitted individually.
# T1 sequence (P61073 whole entry): as the sequence (P61073 whole entry Y7A/Y12A/Y21A) above, with A7Y, A12Y, A21Y counted along it
Substance,shape of β-arrestin-2 recruitment dose response (CXCR4 [1]),ΔGdimer (CXCL12WT dimerization; pathway 1: dimerization after sTyr21 sulfopeptide binding) [kcal mol^−],ΔGdimer (CXCL12WT dimerization; pathway 2: dimerization before sulfopeptide binding) [kcal mol^−],"Kd (CXCL12WT dimerization; read-out: Kd for CXCL12WT dimerization, in the presence of 50 mM sulfotyrosine) [mM]","efficacy (maximum calcium response) (CXCR4 (Y7A, Y12A, Y21A))","potency (calcium response) (CXCR4 (Y7A, Y12A, Y21A); relative to CXCR4(Y21A))",reduction of potency (calcium response) (CXCR4(Y12A)) [fold],recognition of the full-length receptor in comparison to CXCL12WT (CXCR4 [2]),Kd (CXCR41-38) [mM]
"CXCL12WT: wild type CXCL12 (stromal cell-derived factor-1/SDF-1), SEQ ID NO:1",bimodal recruitment; also recorded: bimodal stimulation,−3.5,−2.5,9.3 ± 1.8,~20 % of the wildtype receptor,did not further diminish the potency relative to CXCR4(Y21A),3,,
CXCL122: constitutively dimeric variant of CXCL12 containing L36C/A65C mutations,,,,,,,,six-times weaker,0.0009 ± 0.0003
